Changes are numbered by the printed parent chain.
T1: GFP-9S library array, motif 4 ND N98S;D124L (synthetic construct, N98S;D124L)
T1 chain: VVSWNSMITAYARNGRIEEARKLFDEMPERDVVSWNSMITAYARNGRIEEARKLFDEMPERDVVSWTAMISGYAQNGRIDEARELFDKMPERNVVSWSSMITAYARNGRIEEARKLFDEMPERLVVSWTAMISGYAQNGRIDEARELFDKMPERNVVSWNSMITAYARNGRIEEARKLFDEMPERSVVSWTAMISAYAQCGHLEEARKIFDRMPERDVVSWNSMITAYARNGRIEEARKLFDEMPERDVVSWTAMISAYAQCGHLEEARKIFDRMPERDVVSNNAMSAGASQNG

T2: GFP-9S library array, motif 4 ND N98P;D124T (synthetic construct, N98P;D124T)
T2 chain: T1 chain with S98P, L124T

T3: GFP-9S library array, motif 4 ND N98K;D124Y (synthetic construct, N98K;D124Y)
T3 chain: T1 chain with S98K, L124Y

T4: GFP-9S library array, motif 4 ND (synthetic construct)
T4 chain: T1 chain with S98N, L124D

T5: GFP-9S library array, motif 4 ND D124G (synthetic construct, D124G)
T5 chain: T1 chain with S98N, L124G

B1: Cy5-rpoA-G (ssRNA)
RNA: AUUAGACGUGA
B2: Cy5-rpoA (ssRNA)
RNA: AUUACACGUGA
B3: IR-rpoA-A (ssRNA)
RNA: AUUAAACGUGA
B4: IR-rpoA-U (ssRNA)
RNA: AUUAUACGUGA

Experiments:
Experiment in all cases: high-throughput RNA pulldown from lysate on Ni-NTA beads; HRP: 50 mM Tris pH 8, 150 mM NaCl, 1 mM beta-mercaptoethanol, 50 ug/ml BSA, 3 ug/ml yeast RNA, 0.5% heparin; ITC and FP: Tris pH 8, 200 mM KCl, 5% glycerol; MST: 50 mM Tris pH 8, 200 mM NaCl, 1 mM DTT, BSA, heparin, 0.05% Tween 20
Details in all cases: tags: N-terminal His-eGFP
[1] = biological target: T1, GFP-9S library array, motif 4 ND …
[2] = biological target: T2, GFP-9S library array, motif 4 ND …
[3] = biological target: T3, GFP-9S library array, motif 4 ND …
[4] = biological target: T4, GFP-9S library array, motif 4 ND
[5] = biological target: T5, GFP-9S library array, motif 4 ND D124G

Binder	Kd ([1]; label: 5' Cy5) [nM]	Kd ([2]; label: 5' Cy5) [nM]	Kd ([3]; label: 5' Cy5) [nM]	Kd ([4]; label: 5' Cy5) [nM]	Kd ([5]; label: 5' Cy5) [nM]	Kd ([1]; label: 5' IRDye 800CW) [nM]	Kd ([2]; label: 5' IRDye 800CW) [nM]	Kd ([3]; label: 5' IRDye 800CW) [nM]	Kd ([4]; label: 5' IRDye 800CW) [nM]	Kd ([5]; label: 5' IRDye 800CW) [nM]
B1	94	177	49.3	276	445	–	–	–	–	–
B2	83.5	176	62.5	19	30.7	–	–	–	–	–
B3	–	–	–	–	–	159	405	115	86.8	136
B4	–	–	–	–	–	164	179	128	6.27	30.7

From PMC8809517, “Cofactor-independent RNA editing by a synthetic S-type PPR protein”
